Experimental data as given in patent US8541373B2, “BChE albumin fusions for the treatment of cocaine abuse” (priority 2009, dated 2013).

Test system: cocaine
Assay: Plasma cocaine, benzoylecgonine and ecgonine methyl ester (LC-MS) and cocaine PK after IV cocaine post-AlbuBChE
Format: in vivo, cynomolgus monkeys
Details: 0.2 mg/kg IM
Procedure: Blood was placed into K2EDTA blood collection tubes with esterase inhibitor diisopropylfluorophosphate (DFP). Tubes were inverted several times and placed on wet ice upon collection. Samples were centrifuged at 2-8° C. within 45 minutes of collection. The resultant plasma was recovered and a single 200 μL aliquot of plasma was placed into polypropylene tubes. Plasma samples were frozen over dry ice and stored at −75±15° C.
The following outline describes the LC-MS-based assay employed for the measurement of cocaine in plasma samples. Prior to MS analysis, plasma samples, calibration standards and controls were extracted using supported liquid extraction (SLE-ISOLUTE, Biotage). Twenty-five microliters of samples (25 μL) received 150 μl of 5% Ammonium hydroxide and 25 μl internal standard solution (Cocaine-d3). After mixing and transfer to SLE plate, samples were eluted with methylene chloride and evaporated to dryness. After resuspension in 50 μl of reconstitution solution—5% ACM in 10 mM ammonium acetate in water, 10 μl was injected onto Thermo Hypercarb column at 0.5 ml/min. Mobile phase was biphasic. Mass spectrophotometric detection was performed using Api 4000, APCI positive interface and Multiple Reaction Monitoring (MRM). Plasma concentrations of cocaine, benzoylecgonine and ecgonine methyl ester were determined using this assay.
When the data permits, pharmacokinetic parameter values for cocaine and its metabolites were determined using plasma concentration-times profiles for individual animals at all the study days of cocaine administration. […] Specifically the model for non-compartmental analysis with IV bolus input for cocaine and extravascular input for the metabolites.

[1] = cocaine 1 mg/kg IV 2 hr post-AlbuBChE
[2] = cocaine 1 mg/kg IV 2 hr post-AlbuBChE, 5 min after cocaine
[3] = cocaine 1 mg/kg IV 2 hr post-AlbuBChE, 10 min after cocaine
[4] = cocaine 1 mg/kg IV 2 hr post-AlbuBChE, 15 min after cocaine
[5] = cocaine 1 mg/kg IV 2 hr post-AlbuBChE, 20 min after cocaine
[6] = cocaine 1 mg/kg IV 2 hr post-AlbuBChE, 30 min after cocaine
[7] = cocaine 1 mg/kg IV 2 hr post-AlbuBChE, 40 min after cocaine
[8] = cocaine 1 mg/kg IV 2 hr post-AlbuBChE, 60 min after cocaine
[9] = cocaine 1 mg/kg IV 48 hr post-AlbuBChE
[10] = cocaine 1 mg/kg IV 48 hr post-AlbuBChE, 5 min after cocaine
[11] = cocaine 1 mg/kg IV 48 hr post-AlbuBChE, 10 min after cocaine
[12] = cocaine 1 mg/kg IV 48 hr post-AlbuBChE, 15 min after cocaine
[13] = cocaine 1 mg/kg IV 48 hr post-AlbuBChE, 20 min after cocaine
[14] = cocaine 1 mg/kg IV 48 hr post-AlbuBChE, 30 min after cocaine
[15] = cocaine 1 mg/kg IV 48 hr post-AlbuBChE, 40 min after cocaine
[16] = cocaine 1 mg/kg IV 48 hr post-AlbuBChE, 60 min after cocaine
[17] = cocaine 1 mg/kg IV 96 hr post-AlbuBChE
[18] = cocaine 1 mg/kg IV 96 hr post-AlbuBChE, 5 min after cocaine
[19] = cocaine 1 mg/kg IV 96 hr post-AlbuBChE, 10 min after cocaine
[20] = cocaine 1 mg/kg IV 96 hr post-AlbuBChE, 15 min after cocaine
[21] = cocaine 1 mg/kg IV 96 hr post-AlbuBChE, 20 min after cocaine
[22] = cocaine 1 mg/kg IV 96 hr post-AlbuBChE, 30 min after cocaine
[23] = cocaine 1 mg/kg IV 96 hr post-AlbuBChE, 40 min after cocaine
[24] = cocaine 1 mg/kg IV 96 hr post-AlbuBChE, 60 min after cocaine
[25] = cocaine 1 mg/kg IV 120 hr post-AlbuBChE
[26] = cocaine 1 mg/kg IV 120 hr post-AlbuBChE, 5 min after cocaine
[27] = cocaine 1 mg/kg IV 120 hr post-AlbuBChE, 10 min after cocaine
[28] = cocaine 1 mg/kg IV 120 hr post-AlbuBChE, 15 min after cocaine
[29] = cocaine 1 mg/kg IV 120 hr post-AlbuBChE, 20 min after cocaine
[30] = cocaine 1 mg/kg IV 120 hr post-AlbuBChE, 30 min after cocaine

Substance: AlbuBChE
- Mean benzoylecgonine AUC(0-t) [1]: 3136 ng·min/mL
- Mean cocaine AUC(0-t) [1]: 11878 ng·min/mL
- Mean cocaine C0 [1]: 628 ng/mL
- Ecgonine methyl ester plasma concentration (mean) [2]: 51.6 ng/mL
- Mean benzoylecgonine plasma concentration [2]: 50.6 ng/mL
- Mean cocaine plasma concentration [2]: 481 ng/mL
- Ecgonine methyl ester plasma concentration (mean) [3]: 81.9 ng/mL
- Mean benzoylecgonine plasma concentration [3]: 49.7 ng/mL
- Mean cocaine plasma concentration [3]: 370 ng/mL
- Ecgonine methyl ester plasma concentration (mean) [4]: 83.2 ng/mL
- Mean benzoylecgonine plasma concentration [4]: 50.4 ng/mL
- Mean cocaine plasma concentration [4]: 273 ng/mL
- Ecgonine methyl ester plasma concentration (mean) [5]: 154 ng/mL
- Mean benzoylecgonine plasma concentration [5]: 65.1 ng/mL
- Mean cocaine plasma concentration [5]: 227 ng/mL
- Ecgonine methyl ester plasma concentration (mean) [6]: 261 ng/mL
- Mean benzoylecgonine plasma concentration [6]: 28.6 ng/mL
- Mean cocaine plasma concentration [6]: 67.0 ng/mL
- Ecgonine methyl ester plasma concentration (mean) [7]: 120 ng/mL
- Mean benzoylecgonine plasma concentration [7]: 58.0 ng/mL
- Mean cocaine plasma concentration [7]: 115 ng/mL
- Ecgonine methyl ester plasma concentration (mean) [8]: 120 ng/mL
- Mean benzoylecgonine plasma concentration [8]: 60.5 ng/mL
- Mean cocaine plasma concentration [8]: 58.6 ng/mL
- Mean benzoylecgonine AUC(0-t) [9]: 1989 ng·min/mL
- Mean cocaine AUC % Extrap [9]: 15.1%
- Mean cocaine AUC(0-t) [9]: 7713 ng·min/mL
- Mean cocaine AUC(0-∞) [9]: 9094 ng·min/mL
- Mean cocaine C0 [9]: 274 ng/mL
- Mean cocaine CI [9]: 110 mL/min/kg
- Mean cocaine Vss [9]: 3.503 L/kg
- Mean cocaine t½ [9]: 21.2 min
- Ecgonine methyl ester plasma concentration (mean) [10]: 21.1 ng/mL
- Mean benzoylecgonine plasma concentration [10]: 27.3 ng/mL
- Mean cocaine plasma concentration [10]: 235 ng/mL
- Ecgonine methyl ester plasma concentration (mean) [11]: 19.5 ng/mL
- Mean benzoylecgonine plasma concentration [11]: 29.4 ng/mL
- Mean cocaine plasma concentration [11]: 203 ng/mL
- Ecgonine methyl ester plasma concentration (mean) [12]: 23.9 ng/mL
- Mean benzoylecgonine plasma concentration [12]: 29.0 ng/mL
- Mean cocaine plasma concentration [12]: 187 ng/mL
- Ecgonine methyl ester plasma concentration (mean) [13]: 25.8 ng/mL
- Mean benzoylecgonine plasma concentration [13]: 28.2 ng/mL
- Mean cocaine plasma concentration [13]: 146 ng/mL
- Ecgonine methyl ester plasma concentration (mean) [14]: 33.9 ng/mL
- Mean benzoylecgonine plasma concentration [14]: 37.1 ng/mL
- Mean cocaine plasma concentration [14]: 121 ng/mL
- Ecgonine methyl ester plasma concentration (mean) [15]: 50.7 ng/mL
- Mean benzoylecgonine plasma concentration [15]: 36.9 ng/mL
- Mean cocaine plasma concentration [15]: 77.8 ng/mL
- Ecgonine methyl ester plasma concentration (mean) [16]: 37.0 ng/mL
- Mean benzoylecgonine plasma concentration [16]: 35.6 ng/mL
- Mean cocaine plasma concentration [16]: 43.2 ng/mL
- Mean benzoylecgonine AUC(0-t) [17]: 3270 ng·min/mL
- Mean cocaine AUC % Extrap [17]: 14.9%
- Mean cocaine AUC(0-t) [17]: 11145 ng·min/mL
- Mean cocaine AUC(0-∞) [17]: 13008 ng·min/mL
- Mean cocaine C0 [17]: 451 ng/mL
- Mean cocaine CI [17]: 78.1 mL/min/kg
- Mean cocaine Vss [17]: 2.506 L/kg
- Mean cocaine t½ [17]: 21.1 min
- Ecgonine methyl ester plasma concentration (mean) [18]: 26.4 ng/mL
- Mean benzoylecgonine plasma concentration [18]: 49.7 ng/mL
- Mean cocaine plasma concentration [18]: 360 ng/mL
- Ecgonine methyl ester plasma concentration (mean) [19]: 39.4 ng/mL
- Mean benzoylecgonine plasma concentration [19]: 47.7 ng/mL
- Mean cocaine plasma concentration [19]: 301 ng/mL
- Ecgonine methyl ester plasma concentration (mean) [20]: 24.5 ng/mL
- Mean benzoylecgonine plasma concentration [20]: 52.6 ng/mL
- Mean cocaine plasma concentration [20]: 255 ng/mL
- Ecgonine methyl ester plasma concentration (mean) [21]: 29.8 ng/mL
- Mean benzoylecgonine plasma concentration [21]: 55.1 ng/mL
- Mean cocaine plasma concentration [21]: 189 ng/mL
- Ecgonine methyl ester plasma concentration (mean) [22]: 49.8 ng/mL
- Mean benzoylecgonine plasma concentration [22]: 56.5 ng/mL
- Mean cocaine plasma concentration [22]: 165 ng/mL
- Ecgonine methyl ester plasma concentration (mean) [23]: 50.2 ng/mL
- Mean benzoylecgonine plasma concentration [23]: 55.2 ng/mL
- Mean cocaine plasma concentration [23]: 118 ng/mL
- Ecgonine methyl ester plasma concentration (mean) [24]: 43.4 ng/mL
- Mean benzoylecgonine plasma concentration [24]: 57.8 ng/mL
- Mean cocaine plasma concentration [24]: 60.5 ng/mL
- Mean benzoylecgonine AUC(0-t) [25]: 3583 ng·min/mL
- Mean cocaine AUC % Extrap [25]: 16.1%
- Mean cocaine AUC(0-t) [25]: 11611 ng·min/mL
- Mean cocaine AUC(0-∞) [25]: 14059 ng·min/mL
- Mean cocaine C0 [25]: 391 ng/mL
- Mean cocaine CI [25]: 72.5 mL/min/kg
- Mean cocaine Vss [25]: 2.338 L/kg
- Mean cocaine t½ [25]: 23.0 min
- Ecgonine methyl ester plasma concentration (mean) [26]: 18.9 ng/mL
- Mean benzoylecgonine plasma concentration [26]: 55.1 ng/mL
- Mean cocaine plasma concentration [26]: 349 ng/mL
- Ecgonine methyl ester plasma concentration (mean) [27]: 28.9 ng/mL
- Mean benzoylecgonine plasma concentration [27]: 46.9 ng/mL
- Mean cocaine plasma concentration [27]: 312 ng/mL
- Ecgonine methyl ester plasma concentration (mean) [28]: 27.6 ng/mL
- Mean benzoylecgonine plasma concentration [28]: 53.1 ng/mL
- Mean cocaine plasma concentration [28]: 267 ng/mL
- Ecgonine methyl ester plasma concentration (mean) [29]: 34.5 ng/mL
- Mean benzoylecgonine plasma concentration [29]: 55.9 ng/mL
- Mean cocaine plasma concentration [29]: 218 ng/mL
- Ecgonine methyl ester plasma concentration (mean) [30]: 136 ng/mL
- Mean benzoylecgonine plasma concentration [30]: 64.2 ng/mL
- Mean cocaine plasma concentration [30]: 160 ng/mL
